Laboratory results taken from US20220401537A1.

Target: recombinant human ROR1 ectodomain containing a C-terminal Avi tag, biotinylated (human) (UniProt Q01973)
Test: cell-based or functional assay

Chain of UniProt Q01973 (Q01973 30-406): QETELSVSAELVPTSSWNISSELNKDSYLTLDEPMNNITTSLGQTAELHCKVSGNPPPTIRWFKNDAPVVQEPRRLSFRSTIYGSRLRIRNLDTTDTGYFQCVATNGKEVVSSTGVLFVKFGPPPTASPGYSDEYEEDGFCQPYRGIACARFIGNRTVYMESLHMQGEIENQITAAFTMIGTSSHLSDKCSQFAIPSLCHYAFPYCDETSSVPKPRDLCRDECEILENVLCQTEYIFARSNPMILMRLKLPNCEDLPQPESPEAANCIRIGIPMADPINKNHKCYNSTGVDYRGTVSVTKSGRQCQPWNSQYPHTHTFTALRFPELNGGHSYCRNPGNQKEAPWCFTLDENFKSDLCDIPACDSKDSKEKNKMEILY

- fraction of CAR T cells activated (Ca2+ mobilization, Fluo-4) during 20 minutes on a ROR1-containing bilayer: < 10%
Substance: ROR1-specific 4-1BB/CD3ζ CAR backbone containing a StrepTag II (STII) sequence and two G4S linkers inserted between the R12 scFv and IgG4 hinge (from UniProt P10747 153-179; Q07011 214-255; P20963 52-163)
